In paper PMC5730846 (2017):

Key:
recombinant Hsp90α [1] = molecular target: T1, recombinant Hsp90α (human, UniProt P07900 1-732); assay: FP; AMPPNP
recombinant Hsp90α [2] = molecular target: T1, recombinant Hsp90α; assay: FP; ADP

Kd (recombinant Hsp90α [1]): 240 nM
Kd (recombinant Hsp90α [2]): 810 nM
B1: Tsc1-D-His6 labeled with Texas Red maleimide (domain or fragment)
chain: DGCSDSMVGHNEEASGHNGETKTPRPSSARGSSGSRGGGGSSSSSSELSTPEKPPHQRAGPFSSRWETTMGEASASIPTTVGSLPSSKSFLGMKARELFRNKSESQCDEDGMTSSLSESLKTELGKDLGVEAKIPLNLDGPHPSPPTPDSVGQLHIMDYNETHHEHS
modifications: Texas Red C2 maleimide label, 0.8 labels/Tsc1-D
